B1: TPR t1 (parent)
chain: GACCAAUCUGCCCUCAGAGCUCGAGAACAUCUUCGGAUGCAGAGGAGGCAGGCUUCGGUGGCGCGAUAGCGCCAACGUCCUCAACCUCCAAUGCAUCCCACCACAUGAUGAUGCCUGAAGAGCCUUGGUUUUUUG

Variants of: B1
Assay: polymerase ribozyme fitness, log enrichment relative to wild type (log ratio); higher = more active; in vitro selection for triplet polymerase activity
In short: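 Mutant libraries were PCR-built and transcribed for each subunit of a heterodimeric triplet polymerase ribozyme and selected for one round in triplicate at −7 °C, frozen, before gel excision of extended constructs and streptavidin-bead capture. Input and output libraries were Illumina-sequenced, keeping genotypes with ≥10 input reads and ≥1 read per output. Fitness is a logarithmic ratio of genotype to wild-type enrichment, in base 2, using inverse-variance-weighted replicate averages.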

Row | Variant | polymerase ribozyme fitness (log ratio)
1 | C94U C102U U126C | -2.66
2 | A95U U106G G120U | -2.83
3 | A90G G113U A118C | -4.53
4 | U87C C115U | -0.297
5 | C94A G117C | -4.31
6 | U92A G120A | -2.17
7 | U92A G120U | -2.93
8 | C97A C123G | -3.19
9 | C89U U92G | -1.82
10 | G93A C99U | -4.67
11 | A91C U112A C123A G128C | -3.53
12 | G93U U96A | -2.6
13 | C89U C123U | 0.813
14 | C94U A121G | 1.59
15 | A90G C104U | -0.0421
16 | U92A G113C | -3.49
17 | U92A G113A | -2.8
18 | A90U A100C A119G | -2.07
19 | U96G G113C | -2.59
20 | G93U C104A | -2.9
21 | A90U U96C C115U | -1.64

Row | Variant | polymerase ribozyme fitness (log ratio)
22 | U96C G128U | -1.67
23 | A91U C123G | 0.354
24 | C98A G120U | -4.6
25 | C98A C115U C123U | -7.67
26 | A95C G128C | -2.12
27 | C99A C123A | -5.64
28 | C97G C104U | -3.29
29 | A91C U125A | -2.71
30 | U87C C94A | -0.939
31 | C88U C101U | -0.588
32 | C98U G110U | -2.66
33 | U92A U130G U131G | -5.8
34 | A95G G110U U130G U132A | -1.43
35 | A91C G117C | -1.71
36 | A91G U129A | -2.34
37 | C94G U130A G135U | -1.4
38 | C88A C99A U125G | -6.88
39 | C86A G110U | -2.79
40 | C94G C115A | -0.789
41 | C89G G127A | -1.9
42 | C94U G117U | 0.0636

Row | Variant | polymerase ribozyme fitness (log ratio)
43 | C97A U131A | -3.97
44 | C97U G122A | -1.08
45 | C99U C114U | -4.12
46 | C94G C114U G128C | -3.47
47 | A90U A100U | -2.77
48 | U87A G93A | -0.908
49 | C86U A100U | -0.74
50 | C97U U133A | -0.824
51 | G93A G113A | -0.607
52 | G93C G117A | -1.09
53 | C97U G120U C124A | 0.793
54 | U87A C123G | 1.66
55 | C86A C104A C124G G128U U133A | -1.59
56 | C88A C124A | 0.767
57 | C86G A108G U130A | -3.28
58 | A95G U112A A119U | 0.842
59 | A95U U96A C101G U106C C124A | -4.41
60 | C88U C97U | -1.02
61 | C89U G113U | -3.66
62 | C98U A119U | -1.28
63 | C97U C114U | -2.99

Row | Variant | polymerase ribozyme fitness (log ratio)
64 | C97U C114A | -1.76
65 | C97U C114G | -3.36
66 | C94G A100U G120A | -0.669
67 | C88U C89A C115U G117C U126A | -3.5
68 | U96A U131C | -1.19
69 | U92A C114U | -3.08
70 | C98A A100U U112A | -5.91
71 | C94U A100G G120U | -3.95
72 | C89A U112A | -1.53
73 | A91G G113U | -3.39
74 | A100C U109A | -6.83
75 | G93U C94U | -1.22
76 | A91G C104U A118C C123G C124A U126A | -0.422
77 | A95U G117C | -4.23
78 | A91G C98U | -1.4
79 | C89G C104U A121U | 1.58
80 | A90U C97U C104A U109G C124A | -3.98
81 | C98G U116A C124G | -4.52
82 | U92C G128C | -3.41
83 | C89U A105G | -2.76
84 | C88U G120A | -0.0108
